Experiments:
Assay in all cases: cell-based or functional assay
[1] = biological target: HIV-1 Env of strain X1254_c3 (HIV-1)
[2] = biological target: HIV-1 Env of strain Q842.d12 (HIV-1)
[3] = biological target: HIV-1 Env of strain C3347.c11 (HIV-1)
[4] = biological target: HIV-1 Env of strain 3415.v1.c1 (HIV-1)
[5] = biological target: HIV-1 Env of strain X1193_c1 (HIV-1)
[6] = biological target: HIV-1 Env of strain REJO4541.67 (HIV-1)
[7] = biological target: HIV-1 Env of strain 6545.v4.cl (HIV-1)
[8] = biological target: HIV-1 Env of strain CAP45.2.00.G3 (HIV-1)
[9] = biological target: HIV-1 Env of strain Du422.1 (HIV-1)
[10] = biological target: HIV-1 Env of strain CAP210.2.00.E8 (HIV-1)
[11] = biological target: HIV-1 Env of strain 3817.v2.c59 (HIV-1)
[12] = biological target: HIV-1 Env of strain 89-F1_2_25 (HIV-1)
[13] = biological target: HIV-1 Env of strain 620345.c01 (HIV-1)
[14] = biological target: HIV-1 Env of strain T278-50 (HIV-1)
[15] = biological target: HIV-1 Env of strain 3016.v5.c45 (HIV-1)
[16] = biological target: HIV-1 Env of strain 3718.v3.c11 (HIV-1)
[17] = biological target: HIV-1 Env of strain CNE21 (HIV-1)
[18] = biological target: HIV-1 Env of strain HIV-16845-2.22 (HIV-1)
[19] = biological target: HIV-1 Env of strain ZM247v1(Rev-) (HIV-1)
[20] = biological target: HIV-1 Env of strain C1080.c03 (HIV-1)
[21] = biological target: HIV-1 Env of strain 3103.v3.c10 (HIV-1)
[22] = biological target: HIV-1 Env of strain TRO.11 (HIV-1)
[23] = biological target: HIV-1 Env of strain Ce1176_A3 (HIV-1)
[24] = biological target: HIV-1 Env of strain CNE58 (HIV-1)
[25] = biological target: HIV-1 Env of strain R1166.c01 (HIV-1)
[26] = biological target: HIV-1 Env of strain CNE30 (HIV-1)
[27] = biological target: HIV-1 Env of strain X2131_C1_B5 (HIV-1)
[28] = biological target: HIV-1 Env of strain 928-28 (HIV-1)
[29] = biological target: HIV-1 Env of strain ZM53M.PB12 (HIV-1)
[30] = biological target: HIV-1 Env of strain ZM197M.PB7 (HIV-1)
[31] = biological target: HIV-1 Env of strain CAAN5342.A2 (HIV-1)
[32] = biological target: HIV-1 Env of strain Q23.17 (HIV-1)
[33] = biological target: HIV-1 Env of strain Ce2010_F5 (HIV-1)
[34] = biological target: HIV-1 Env of strain 1056_10_TA11_1826 (HIV-1)
[35] = biological target: HIV-1 Env of strain 0330.v4.c3 (HIV-1)
[36] = biological target: HIV-1 Env of strain P1981_C5_3 (HIV-1)
[37] = biological target: HIV-1 Env of strain Q461.e2 (HIV-1)
[38] = biological target: HIV-1 Env of strain P0402_c2_11 (HIV-1)
[39] = biological target: HIV-1 Env of strain Ce0682_E4 (HIV-1)
[40] = biological target: HIV-1 Env of strain 231965.c01 (HIV-1)
[41] = biological target: HIV-1 Env of strain Q259.d2.17 (HIV-1)
[42] = biological target: HIV-1 Env of strain TROJO4551.58 (HIV-1)
[43] = biological target: HIV-1 Env of strain 6480.v4.c25 (HIV-1)

B1: NIH45-46 IgG (antibody, V domains shown)
VH: QVRLSQSGGQMKKPGESMRLSCRASGYEFLNCPINWIRLAPGRRPEWMGWLKPRGGAVNYARKFQGRVTMTRDVYSDTAFLELRSLTSDDTAVYFCTRGKYCTARDYYNWDFEHWGRGAPVTVSS
VL: EIVLTQSPATLSLSPGETAIISCRTSQSGSLAWYQQRPGQAPRLVIYSGSTRAAGIPDRFSGSRWGADYNLSISNLESGDFGVYYCQQYEFFGQGTKVQVDI
B1 was tested, and the “neutralization IC50” value [1] was 0.032 µg/mL, the “neutralization IC50” value [2] was 0.031 µg/mL and the “neutralization IC50” value [3] was 0.029 µg/mL. For the same binder, the “neutralization IC50” value [4] was 0.022 µg/mL, the “neutralization IC50” value [5] was 0.021 µg/mL and the “neutralization IC50” value [6] was 0.014 µg/mL. For the same binder, the “neutralization IC50” value [7] was greater than 50 µg/mL, the “neutralization IC50” value [8] was greater than 50 µg/mL and the “neutralization IC50” value [9] was greater than 50 µg/mL. The “neutralization IC50” value [10] was greater than 50 µg/mL, the “neutralization IC50” value [11] was greater than 50 µg/mL and the “neutralization IC50” value [12] was greater than 50 µg/mL. For the same binder, the “neutralization IC50” value [13] was greater than 50 µg/mL, the “neutralization IC50” value [14] was greater than 50 µg/mL and the “neutralization IC50” value [15] was greater than 50 µg/mL. For the same binder, the “neutralization IC50” value [16] was 19.6 µg/mL, the “neutralization IC50” value [17] was 6.01 µg/mL and the “neutralization IC50” value [18] was 5 µg/mL. The “neutralization IC50” value [19] was 2.94 µg/mL, the “neutralization IC50” value [20] was 2.48 µg/mL and the “neutralization IC50” value [21] was 1.77 µg/mL. For the same binder, the “neutralization IC50” value [22] was 1.61 µg/mL, the “neutralization IC50” value [23] was 0.93 µg/mL and the “neutralization IC50” value [24] was 0.43 µg/mL. For the same binder, the “neutralization IC50” value [25] was 0.31 µg/mL, the “neutralization IC50” value [26] was 0.309 µg/mL and the “neutralization IC50” value [27] was 0.23 µg/mL. The “neutralization IC50” value [28] was 0.23 µg/mL, the “neutralization IC50” value [29] was 0.175 µg/mL and the “neutralization IC50” value [30] was 0.15 µg/mL. For the same binder, the “neutralization IC50” value [31] was 0.15 µg/mL, the “neutralization IC50” value [32] was 0.14 µg/mL and the “neutralization IC50” value [33] was 0.101 µg/mL. For the same binder, the “neutralization IC50” value [34] was 0.094 µg/mL, the “neutralization IC50” value [35] was 0.09 µg/mL and the “neutralization IC50” value [36] was 0.08 µg/mL. The “neutralization IC50” value [37] was 0.076 µg/mL, the “neutralization IC50” value [38] was 0.073 µg/mL and the “neutralization IC50” value [39] was 0.054 µg/mL. For the same binder, the “neutralization IC50” value [40] was 0.051 µg/mL, the “neutralization IC50” value [41] was 0.043 µg/mL and the “neutralization IC50” value [42] was 0.04 µg/mL. The “neutralization IC50” value [43] was 0.032 µg/mL.

From US20130209454A1 (CALIFORNIA INSTITUTE OF TECHNOLOGY, published 2013)
